Here are results for two molecules from article PMC5308204 (Nature genetics, 2010).

Holding throughout (experiment): co-IP
One test has as its target T1, HA-tagged VPS33B (human, UniProt Q9H267 1-617).
T1 sequence (looked up): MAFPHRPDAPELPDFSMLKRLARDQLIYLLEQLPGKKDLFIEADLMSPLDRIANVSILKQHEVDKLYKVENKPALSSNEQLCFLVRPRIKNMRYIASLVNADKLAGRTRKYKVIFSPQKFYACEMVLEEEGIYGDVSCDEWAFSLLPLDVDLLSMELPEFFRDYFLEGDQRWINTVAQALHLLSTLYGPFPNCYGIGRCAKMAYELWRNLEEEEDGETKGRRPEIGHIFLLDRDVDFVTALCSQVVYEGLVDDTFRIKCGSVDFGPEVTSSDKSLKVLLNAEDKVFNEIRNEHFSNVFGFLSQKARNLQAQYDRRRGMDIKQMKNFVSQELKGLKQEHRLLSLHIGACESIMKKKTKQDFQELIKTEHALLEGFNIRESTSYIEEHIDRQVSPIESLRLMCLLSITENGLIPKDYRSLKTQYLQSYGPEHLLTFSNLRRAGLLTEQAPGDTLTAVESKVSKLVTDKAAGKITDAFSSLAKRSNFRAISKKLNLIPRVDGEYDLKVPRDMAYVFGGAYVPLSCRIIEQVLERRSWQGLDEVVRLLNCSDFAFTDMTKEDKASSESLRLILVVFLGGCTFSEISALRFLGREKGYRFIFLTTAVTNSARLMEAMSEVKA

In test [1] the target is T2, HA-tagged VPS33B (L30P) mutant (human, UniProt Q9H267 1-617, L30P).
T2 sequence (looked up): T1 sequence (looked up) with L30P

The target of another test is T3, HA-tagged VPS33A (UniProt Q96AX1 1-596).
T3 sequence (looked up): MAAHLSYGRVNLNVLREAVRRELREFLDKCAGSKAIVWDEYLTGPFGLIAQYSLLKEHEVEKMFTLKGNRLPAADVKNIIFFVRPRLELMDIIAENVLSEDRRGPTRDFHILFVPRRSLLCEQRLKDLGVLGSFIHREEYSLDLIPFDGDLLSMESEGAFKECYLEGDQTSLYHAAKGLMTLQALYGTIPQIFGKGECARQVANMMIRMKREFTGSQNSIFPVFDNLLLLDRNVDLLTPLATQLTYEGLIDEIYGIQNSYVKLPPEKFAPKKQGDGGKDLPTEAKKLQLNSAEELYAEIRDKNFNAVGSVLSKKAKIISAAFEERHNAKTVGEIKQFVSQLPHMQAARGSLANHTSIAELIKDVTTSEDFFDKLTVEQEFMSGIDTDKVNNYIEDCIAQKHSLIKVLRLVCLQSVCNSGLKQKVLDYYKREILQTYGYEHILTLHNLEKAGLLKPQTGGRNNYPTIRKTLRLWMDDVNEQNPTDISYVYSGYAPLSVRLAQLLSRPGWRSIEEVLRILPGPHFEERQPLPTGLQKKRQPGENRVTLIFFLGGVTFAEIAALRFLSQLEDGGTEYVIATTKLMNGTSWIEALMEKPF

Positions count from the first letter of the chain named.

B1: Myc-tagged VIPAR (natural protein, human, UniProt Q9H9C1 1-493, looked up)
chain: MNRTKGDEEEYWNSSKFKAFTFDDEDDELSQLKESKRAVNSLRDFVDDDDDDDLERVSWSGEPVGSISWSIRETAGNSGSTHEGREQLKSRNSFSSYAQLPKPTSTYSLSSFFRGRTRPGSFQSLSDALSDTPAKSYAPELGRPKGEYRDYSNDWSPSDTVRRLRKGKVCSLERFRSLQDKLQLLEEAVSMHDGNVITAVLIFLKRTLSKEILFRELEVRQVALRHLIHFLKEIGDQKLLLDLFRFLDRTEELALSHYREHLNIQDPDKRKEFLKTCVGLPFSAEDSAHIQDHYTLLERQIIIEANDRHLESAGQTEIFRKHPRKASILNMPLVTTLFYSCFYHYTEAEGTFSSPVNLKKTFKIPDKQYVLTALAARAKLRAWNDVDALFTTKNWLGYTKKRAPIGFHRVVEILHKNNAPVQILQEYVNLVEDVDTKLNLATKFKCHDVVIDTYRDLKDRQQLLAYRSKVDKGSAEEEKIDALLSSSQIRWKN
For B1, the “percent of the Myc-tagged input recovered” value in the test with HA-tagged VPS33B was 28.6%; in test [1], 23.8%.

B2: Myc-tagged VPS16 (natural protein, human, UniProt Q9H269 1-839, looked up)
chain: MDCYTANWNPLGDSAFYRKYELYSMDWDLKEELRDCLVAAAPYGGPIALLRNPWRKEKAASVRPVLDIYSASGMPLASLLWKSGPVVSLGWSAEEELLCVQEDGAVLVYGLHGDFRRHFSMGNEVLQNRVLDARIFHTEFGSGVAILTGAHRFTLSANVGDLKLRRMPEVPGLQSAPSCWTVLCQDRVAHILLAVGPDLYLLDHAACSAVTPPGLAPGVSSFLQMAVSFTYRHLALFTDTGYIWMGTASLKEKLCEFNCNIRAPPKQMVWCSRPRSKERAVVVAWERRLMVVGDAPESIQFVLDEDSYLVPELDGVRIFSRSTHEFLHEVPAASEEIFKIASMAPGALLLEAQKEYEKESQKADEYLREIQELGQLTQAVQQCIEAAGHEHQPDMQKSLLRAASFGKCFLDRFPPDSFVHMCQDLRVLNAVRDYHIGIPLTYSQYKQLTIQVLLDRLVLRRLYPLAIQICEYLRLPEVQGVSRILAHWACYKVQQKDVSDEDVARAINQKLGDTPGVSYSDIAARAYGCGRTELAIKLLEYEPRSGEQVPLLLKMKRSKLALSKAIESGDTDLVFTVLLHLKNELNRGDFFMTLRNQPMALSLYRQFCKHQELETLKDLYNQDDNHQELGSFHIRASYAAEERIEGRVAALQTAADAFYKAKNEFAAKATEDQMRLLRLQRRLEDELGGQFLDLSLHDTVTTLILGGHNKRAEQLARDFRIPDKRLWWLKLTALADLEDWEELEKFSKSKKSPIGYLPFVEICMKQHNKYEAKKYASRVGPEQKVKALLLVGDVAQAADVAIEHRNEAELSLVLSHCTGATDGATADKIQRARAQAQKK
Consider B2, for which the “percent of the Myc-tagged input recovered” value with HA-tagged VPS33A is 28.2%.
